± gives the uncertainty stated by the source.
B1: Membrane-associated guanylate kinase, WW and PDZ domain-containing protein 2, residues 601 to 682; numbered along this chain, Q86UL8 (parent)
chain: AELMTLTIVKGAQGFGFTIADSPTGQRVKQILDIQGCPGLCEGDLIVEINQQNVQNLSHTEVVDILKDCPIGSETSLIIHRG

Variants of: B1
Experiment: abundance fitness (aPCA) (normalised: wild type 0, dead -1); higher = more abundant; growth selection in yeast, the domain comes from the species named
Details: Homo sapiens

Point of comparison: D68Q, abundance fitness 0.07 ± 0.11. Against it:
- D64W — within error, -0.047 ± 0.1
- D68W — within error, -0.166 ± 0.15
- D68A — within error, -0.14 ± 0.15
- D68I — lower, -0.271 ± 0.18
- D68M — within error, 0.027 ± 0.15
- D68L — lower, -0.138 ± 0.086
- D68E — within error, -0.022 ± 0.088
- D68P — within error, -0.233 ± 0.26
- D68R — lower, -0.136 ± 0.068
- D68T — lower, -0.153 ± 0.095
- D68F — within error, -0.304 ± 0.5
- D68Y — within error, 0.011 ± 0.24
- D68V — within error, 0.046 ± 0.082
- D68C — within error, -0.101 ± 0.14
- D68G — within error, -0.057 ± 0.1
- D68H — within error, 0.222 ± 0.28
- D68K — within error, 0.005 ± 0.13
- S73G — within error, 0.095 ± 0.081
- S73M — within error, -0.004 ± 0.14
- S73I — within error, -0.011 ± 0.18
- S73R — lower, -0.132 ± 0.089
- S73H — within error, 0.024 ± 0.15
- S73Q — within error, -0.098 ± 0.11
- S73A — within error, 0.021 ± 0.065
- S73K — within error, -0.044 ± 0.092
- S73V — within error, -0.025 ± 0.067
- S73T — within error, -0.095 ± 0.12
- S73F — within error, 0.029 ± 0.19
- S73P — within error, -0.048 ± 0.1
- S73L — within error, -0.102 ± 0.14
- S73N — within error, -0.359 ± 0.33
- G72C — within error, 0.046 ± 0.089
- G72P — within error, 0.022 ± 0.12
- G72L — within error, -0.003 ± 0.079
- G72R — within error, 0.006 ± 0.065
- G72K — within error, -0.139 ± 0.099
- G72T — lower, -0.147 ± 0.092
- G72S — within error, 0.004 ± 0.083
- G72E — within error, -0.018 ± 0.097
- G72A — within error, 0.002 ± 0.061
- G72H — lower, -0.356 ± 0.28
- G72N — within error, -0.189 ± 0.34
- G72Q — within error, 0.003 ± 0.17
- G72M — within error, 0.059 ± 0.089
- G72F — lower, -0.353 ± 0.16
- G72Y — lower, -0.419 ± 0.24
- G72D — within error, 0.073 ± 0.089
- G72W — lower, -0.243 ± 0.1
- K67Q — within error, -0.145 ± 0.13
- K67N — within error, -0.022 ± 0.18
- K67G — within error, 0.052 ± 0.093
- K67A — within error, -0.072 ± 0.083
- K67M — within error, -0.003 ± 0.1
- K67L — within error, -0.083 ± 0.097
- K67H — within error, -0.23 ± 0.21
- K67W — within error, -0.224 ± 0.24
- K67R — within error, 0.034 ± 0.089
- K67Y — lower, -0.226 ± 0.14
- K67V — within error, -0.112 ± 0.14
- K67T — within error, 0.093 ± 0.11
- K67S — within error, 0.004 ± 0.083
- K67F — within error, -0.062 ± 0.31
- K67E — within error, -0.034 ± 0.17
- K67C — within error, -0.117 ± 0.11
- K67I — lower, -0.324 ± 0.13
- I65F — within error, -0.088 ± 0.074
- I65T — within error, -0.038 ± 0.048
- I65A — within error, -0.048 ± 0.037
- I65M — within error, -0.051 ± 0.05
- I65D — lower, -0.542 ± 0.13
- I65C — within error, -0.053 ± 0.063
- I65L — within error, -0.072 ± 0.037
- I65P — lower, -1.32 ± 0.22
- I65G — lower, -0.295 ± 0.038
- I65K — within error, -0.069 ± 0.057
- I65R — within error, -0.064 ± 0.034
- I65E — lower, -0.146 ± 0.052
- I65Q — within error, -0.079 ± 0.047
- I65S — within error, -0.059 ± 0.04
- I65V — within error, 0.006 ± 0.037
- I65H — lower, -0.242 ± 0.093
- I65N — lower, -0.256 ± 0.087
- I65Y — within error, -0.047 ± 0.063

— the Human Domainome abundance scans (Beltran et al. 2025)
